Measurements from patent publication US20030190705A1 (SUNOL MOLECULAR, published 2003).

B1: chimeric anti-tissue factor antibody cH36 (antibody, human IgG4, V domains shown)
VH: EIQLQQSGPELVKPGASVQVSCKTSGYSFTDYNVYWVRQSHGKSLEWIGYIDPYNGITIYDQNFKGKATLTVDKSSTTAFMHLNSLTSDDSAVYFCARDVTTALDFWGQGTTLTVSS
VL: DIQMTQSPASQSASLGESVTITCLASQTIDTWLAWYQQKPGKSPQLLIYAATNLADGVPSRFSGSGSGTKFSFKISSLQAEDFVNYYCQQVYSSPFTFGAGTKLELK
B2: hOAT (humanized IgG One Anti-Tissue Factor antibody) (antibody, V domains shown)
VH: QIQLVQSGGEVKKPGASVRVSCKASGYSFTDYNVYWVRQSPGKGLEWIGYIDPYNGITIYDQNLKGKATLTVDKSTSTAYMELSSLRSEDTAVYFCARDVTTALDFWGQGTTVTVSS
VL: DIQMTQSPASLSASVGDRVTITCLASQTIDTWLAWYLQKPGKSPQLLIYAATNLADGVPSRFSGSGSGTDFSFTISSLQPEDFATYYCQQVYSSPFTFGQGTKLEIK
B3: hFAT (humanized IgG Four Anti-Tissue Factor antibody) (antibody, V domains shown)
VH: B2 VH
VL: B2 VL

target: T1, lipidated recombinant human tissue factor (e.g., Innovin) (human, UniProt P13726 33-295, limits assumed); assay: cell-based or functional assay

Q: Which “inhibition of TF function (PT assay)” value does the source give for B1 here?
A: Its value is ~95%.

Q: For B2, which “inhibition of TF function (PT assay)” value is on record?
A: The value was ~95%.

Q: B3 was tested. Which “inhibition of TF function (PT assay)” value did it give?
A: The value was ~95%.

target: T1, lipidated recombinant human tissue …; assay: cell-based or functional assay; remark: another data set of the same source

Q: What does the source list for B1?
A: PT Time (in seconds) at 12.9 nM anti-TF antibody: 19.8 s; PT Time (in seconds) at 25.8 nM anti-TF antibody: 40 s; PT Time (in seconds) at 51.6 nM anti-TF antibody: 101 s

Q: How did the “PT Time (in seconds) at 12.9 nM anti-TF antibody” value turn out when B2 was run?
A: Its value is 18.9 s.

Q: And the “PT Time (in seconds) at 25.8 nM anti-TF antibody” value?
A: Its value is 33.7 s.

Q: And the “PT Time (in seconds) at 51.6 nM anti-TF antibody” value?
A: The value was 82.1 s.

Q: What does the source list for B3?
A: PT Time (in seconds) at 12.9 nM anti-TF antibody: 20.5 s; PT Time (in seconds) at 25.8 nM anti-TF antibody: 41.7 s; PT Time (in seconds) at 51.6 nM anti-TF antibody: 94.8 s
